# Assay: label from the status in PepcDB records
row,Sequence,protein production
1,MAASVANCCFSVLNASVKIQSSSISSPWCFVSASSLTPRASSNIKRKSSRSDSPSPILNPEKNYPGRVRDESSNPPQKMAFKAFGSPKKEKKESLSDFSRDQQTDPAKIHDASFLNAVVKVSKSNSLSSLKFTLLAFEPTRASFQVYCTHTAPDYSLPWQKQRQFTSTGSAFMIGDGKLLTNAHCVEHDTQVKVKRRGDDRKYVAKVLVRGVDCDIALLSVESEDFWKGAEPLRLGHLPRLQDSVTVVGYPLGGDTISVTKGVVSRIEVTSYAHGSSDLLGIQIDAAINPGNSGGPAFNDQGECIGVAFQVYRSEETENIGYVIPTTVVSHFLTDYERNGKYTGYPCLGVLLQKLENPALRECLKVPTNEGVLVRRVEPTSDASKVLKEGDVIVSFDDLHVGCEGTVPFRSSERIAFRYLISQKFAGDIAEIGIIRAGEHKKVQVVLRPRVHLVPYHIDGGQPSYIIVAGLVFTPLSEPLIEEECEDTIGLKLLTKARYSVARFRGEQIVILSQVLANEVNIGYEDMNNQQVLKFNGIPIRNIHHLAHLIDMCKDKYLVFEFEDNYVAVLEREASNSASLCILKDYGIPSERSADLLEPYVDPIDDTQALDQGIGDSPVSNLEIGFDGLVWA,failed
2,MPKIAKELSALEVKRLTCRIDPETGEATEVRYPVGGVSGLLLRITPSGSRQWILRAKVGNRRPDMGLGPYPEISLAQARDKAREMKEKIRSGIDPLEEKRTLKRALLAEQISTLTFQKAMEKYIKMKAKEFRNPRQEKQWTNSLNTYAIPHLGKLPVREIDLPHIKQVLDPIWETKTETANRVRARIENILGWCAIHGYRSAENPARWQGYLDEVYPSPEKIKKRGHFAALPVDDMPEFMRDLKKRTGTAARALEFLILTASRTNEVIGDKRIGKAGVTWQEIDLARKVWTVPADRMKSEKIHRVPLTDSAIELLKGMGEGSPEDLIFPGPKGGIPSNNFLTALLKRMERPITAHGFRSTFKDWARERTAYADEVSELALAHVNSDATRAAYARSELIDKRRLMMADWEQFCMHGETKKESGKVVAIGEGKG,failed
3,MPYDTSNNTLIVSTRNHQDDDETAIVDDLQRLVNYQISDGGNINHQYFQIAQQFHHTQQQNANANALQLVAAATTATTLMPQTQAALAMNMIPAGTIPNNALWDMWNPIVPDGNRDHYTNIPFK,failed
4,MSLSSKLRLQLDAHASIHENVRRLLQFTTSIMEANEEGIRKDIDSEFLHDFRVAIRRSRSILRLLNGVFDPEKTAWMLAGLRELGKRTNDLRDSDVYLLRREEYTSLLPPSLRPALDPFFSDLEADKRLHHRQFCRYLTGREYSGFMTSLKEFIAEGELPDPETAPLAAEPTGDVAAKTIRKALKKVLVHGRRTGSETSDAELHELRIDCKKLRYLLEFFASLFPPKATAQVLRQMKTLQDNLGTFVDLTVQMEFLQSRLETIPADRGGISEAAAIGGLLTTLYRKREKVREHFHEIFSGFDSNETGELFDELLTGLAEGHHHHHH,not failed
5,MSAQFMTTVPVVLYLALSFGVALWARGRTAEGGSAKDIIEEYYIGGRSMGGFVLAMTIIASYTSAGSFVGGPGVAYRLGLSWVLLAMIQVPTTFLTLGVLGKRFAIVARRAGAVTLTDYLLARYRSHTVVILCSAALLVFFMAAMLAQFIGGARLFQTVTGYPYVVGLALFGVTVVLYTAVGGFRAVVVTDAVQGIVMVVAVVVVLLAVIDAGGGMTQCIATLKAIDPGLITPTGPGDAVPQPFMLSFWVLVGLGVLGLPQTTQRCMGYRDSRAMHDAMIIGTLLIGFMILCAHLAGTLGRAVLPDLPAGDLAMPSLIVQLLSPFWAGVFIAGPLAAIMSTVDSMLLLASAAIVKDLYVRYRLGGDTSRLRPVTMKRMSVASTAVIGVLVFVAAMEPPDLLVWINLFAFGGLEAVFLWPLVLGLYWRRGNATGAIASILSGVTAFVWLTIAKPDMGGIHAIVPTTLLSLVMFVAGSLAGRPSGREVDALFGGERS,failed
6,MSKKPPNRPGITFEIGARLEALDYLQKWYPSRIEKIDYEEGKMLVHFERWSHRYDEWIYWDSNRLRPLERPALRKEGLKDE,not failed
7,MTESKKLWTGHIHLGEKVDFGVILNQLCQAFNGSPFFSHNAMQMRVIDNQIEGYIDMQPYLIGNVAFQILHGGVAATLLDSIGGIVAMAEIYRRAEATEMAEAIKKVSRLATVDMRVDYLAPGRGQYFIARAEVLRFGRKGCTMRMNLINDENKAIATAIASYAF,failed
8,DEWTDVKKVMALGFFDGVHLGHQAVIKQAKQIAEEKGLQTAVLTFDPHPSVVLSNIRKQVKYLTPLEDKAEKMANLGVDIMYVVRFTTQFSELSPRAFVDNYLVALNVKHVVAGFDYSYGKKGEGKMTELENYANGRFEVTIVDKQTAASDKISSTNIRRAITEGELEEANQLLGYP,not failed
9,MTIGPLALVISLSQQMCVYLVVAYLLSKTPLFIPLVHVTIRLPHKAACYAIFSLFCIMGTYFGLRIDDSIANTRAIGAVLGGMLGGPSVGLAVGLTGGLHRYSMGGFTALACAISTTAEGLIGGLVHRYLVSRGQTGKLFQPLVVGLVTLFAEVCQMLIIILVARPAVNAVHLVETIALPMLVANSVGAAMFMTILLDRRTMFETQSSVFSAKALKIAARAEGALRSGFNRENSMRVARIIYEETGVGAVAITDRDKILAFIGIGDDHHKPGMAVTSLQTLESIRENRVMYADGNEVAYQCSISPTCPLGAALVIPLVDEGEQVIGTIKLYEPKTRLFSTINRTLGEGVARLLSTQILAGRYEQQRQLLAQSEIKLLHAQVNPHFLFNALNTLSAVIRLDPDHARHLVQSLSTFFRKNLKRTSEQVTLNDEVEQVSAYLEIELARFGDRLSVDFNVPADLGTATLPTFSLQPLVENAIKHGTAQLLGDGRIGVSAERQGGDLVVRVEDNAGLYERRPGGDGLGMNLVDRRIRARYGQGYGLSVECERDVVTRVILRVPFDPSPAGVASPAFEKVGP,failed
10,MRVCAVVVTYNRKDLLVECLEALRRQTGPLDAIYIIDNASTDGTPELLRSRGYRDGAVIENPLDGSEIVIRYVRLPVNTGGAGGFHEGVKRAFHDGYDWIWLMDDDAEPLPDSLQGLLRYADDDTAALANLKVSPDGRPQYIHRGFFDFDSFGTFVRPVTEDDLREETLEIDHASFVGILINSDSVREIGFPRKEFFLHYDDVEYCLRLRSTGKIILVPGSLILHKEAAERGNLTKGLFGREIPVVPYDKLWLRYYGVRNSIWLRRKEMGRARLFIFMVRAILLSVAAQIITGIREKPFRRVRFILSAYSDGLRGRFDNEKPRRILYG,failed
11,MENETVSELNQTQLQPRAVVALEYQVVTILLVLIICGLGIVGNIMVVLVVMRTKHMRTPTNCYLVSLAVADLMVLVAAGLPNITDSIYGSWVYGYVGCLCITYLQYLGINASSCSITAFTIERYIAICHPIKAQFLCTFSRAKKIIIFVWAFTSLYCMLWFFLLDLNISTYKDAIVISCGYKISRNYYSPIYLMDFGVFYVVPMILATVLYGFIARILFLNPIPSDPKENSKTWKNDSTHQNTNLNVNTSNRCFNSTVSSRKQVTKMLAVVVILFALLWMPYRTLVVVNSFLSSPFQENWFLLFCRICIYLNSAINPVIYNLMSQKFRAAFRKLCNCKQKPTEKPANYSVALNYSVIKESDHFSTELDDITVTDTYLSATKVSFDDTCLASEVSFSQS,failed
12,MQKGVYIMNSTSSIITIGREYGSGGRQIGQEVAKYFGIKCYDKELLEHAANDSGICKELFEHHDEKPTNSFLYSLVMDTYSFGYSSSGFSDMPMNHKIFLAQFDAIKKLAGEGPCVMVGRCADYALADWNDCFSIFVHADLDWRINRIASKHGKTPKEAKDMITKTDKSRASYYNYYTNKKWGAARSYNLCIDSGKLGIDYATEAIIESIKIFDRTKISK,failed
13,MGGDARRALFVPAPSPTLHRMLPDALRDTLEERLDATIESVASVRGGCIANACRLETDAAPFFLKHGPDEVARTFPGEAAGLEALGAADSPLVVPSVHDTAPATDDRPGFLVMEWVNPGREGRRFWDRFGEGLAALHRHTADAYGFGQDNFIGRLPQSNAWTDDWPTFFREQRLAPQVDMARERGRWRDGWGTALTTLYRRLPDILPRSPEPSVLHGDLWKGNYLVTAVGDPALVDPATYYGHREADLAMTELFGGYDDRFYDAYRSAWGLAPEYGTRRDVYNLYHLINHLNLFGGGYAAQVEDTLRPFK,failed
14,MSLTLDELDSHLFKCADIIRDAVDPTDYKEYILPLVFYKAISDEYEQEREEIVEEYGEDFADNANLYDVPIVPEGHRWNDLRQESENVDEAINNAFTEFTQANPDLSGIFNANFMEAGGLTDDRLIKLVEHLSTYDLDRDSVPPDMLGEAYMDLVRHFAEEEGKSGGQFFTPPHIVQLCVRLVDDFADGMTFHDPTVGSGGMLTEAAKYYREAQGGDPSKLTFTGQEINPDIAAIARMNLSLHTLNGEIERGDSLASPGFTDGDDLERFDRVLANFPFSADWAKDDLQDDQYGRFDWHTKLPRADRGDYAFIMHIAEQLKEPDCGDESGGKAAIVIPHGVLFRKHEQRYRQPMLENDLVEAIVGLPENLFQNNSIPSAILVLNTDKPADREGEVQFIHAADEAFYEELSNQNELTDDGLDHIVENFDDWTTEERVSRTVGIEEIEENDFNLNIALYVDTTEPEEDIDVNEELAELRELQAEREEIESRMTEHMEALQYE,failed
15,MIVRSKPNLISVLISLKGSIAKRIALRSLLVTLLASAIVLIETLHPAYFSKVNATPFTLLGLSLSIFMSFRNNACYDRWYEARKALGTVVTEVRSMIRETQVLEDTRARSAILRDLCGFAHALKARLRREDELSAAETWLSQLPPASTSNLPDSLLRQIARQCSDQAQAGRLSEWRYLLLANQLAAITGAQSTCERIKATPLPFPYTLLLHRTSYMFCILLPFAMAEPLGWLTPIFTAIVSYTFFGLDAIGDELEDPFGHDENDLPLSAIVRNIEREILEALGATELPPALEPVDYVLS,failed
16,MKSWTILLSTLCLFSCNQQENKFEKYVDPLIGTDIRIVQGKDKNSTEERGQIMPAVGVPHGMTNWVAQTQATEQKCHPPYYYFQDAIQGFRASHWMNGSCTQDYGSITIMPLSNKLEIDPVKRASTFDHTQETATPSYYSVDLNDYDIHAELTGLSRAGIMQFSFEQDGDHYIVIEPNSDEGVAFVEIDPEKKEITGYNPVHRIYQGYGKEAGFSGHFVIQLNEEIADYGVWDSTTITPGRKSAKGQKHAVGAWIKLTSDKPGKILVKVATSFTSIDNARKNLAAEIPGWNFNEVRQASSDIWNQALGQIAVKGNNEKEKVKFYSALYNAHFLPRAFSDVDGSYPRFDGDGQIMKMDHGTYYCDFSQWDTYRAVHPLFSILTPSRNGDMAHSLVLKGQQGGWLPIFPSWNSYTAAMIGDHCIAMIGDAIVKDTPGFDYEEAYTLMRKNAFEANPDSGSYRDGKGRRAMESYLKYNYVPLEDQVTEAFHRREQVSRTLEYAYDDFVLAQVAKKLGKTDDYKALIKRAENYRNVIDPETGYARGRHADGTWIEPFDPFASTSFICEGTPYHYTWYAPQDIAGLIRHMGGKERFINRLDNFFEGNYYWHGNEPGHHIAYLFAYAGEPWKTQKWVHDIINREYFTTPDGLSGNDDAGQMSSWLVFSMVGFYPVCPGMPYYVIGSPSFEESVITLENGKKFTIEAKGASEKNIYIQSATLNGQPYNKSYILHKDIMNGGILSFVMGDSPNKEWASSAGSLPPSMGL,failed
17,MDFAFEKVARDWFVRWSKGRSEKYAGQVMRNFERWVFPAIGNLDIRQVRTADVVGCLRVMEARGIVDTLRKTKNSLKMVFAFAVGSGMMEINPVAQIGSGVFERLEHHHHHH,failed
18,MGHHHHHHSHMNSCILQATVVEAPQLRYTQDNQTPVAEMVVQFPGLSSKDAPARLKVVGWGAVAQELQDRCRLNDEVVLEGRLRINSLLKPDGNREKQTELTVTRVHH,not failed
